# System: C4
# Assay: C4 converting activity on Western blot of MBL/MASP preparation (C4b deposition from human serum)
# Assay type: biochemical
# Conditions: blot incubated with human serum at 37° C., detection with anti-C4 antibody
# Protocol: The C4 activating potentials of MASP-1 and MASP-2, and Clr and Cls, were compared. This was accomplished by separating a C1 preparation and an MBL/MASP preparation by SDS-PAGE followed by Western blotting. The blot was examined for C4 converting activity by incubation with human serum at 37° C., followed by detection of deposited C4b using anti-C4 antibodies.
# C1 was purified by incubating IgG-coupled Sepharose beads with human serum at 4° C. The beads were washed and incubated at 37° C. for 30 minutes for activation of Clr and Cls. The beads were suspended in non-reducing sample buffer and, without boiling, subjected to SDS-PAGE, followed by blotting in the absence of SDS. A similar blot was made of an MBL preparation produced in the absence of enzyme inhibitors (The State Serum Institute, Copenhagen). Strips of the blots were incubated for 30 minutes at 37° C. with 1.10 (v/v) human MBL-deficient serum, depleted of Clq by fractionation on Biorex 70. The blots were developed with biotinylated F(ab)2 anti-C4 antibody followed by peroxidase-labelled streptavidin and luminescence reagent. Parallel blots were treated with a serine protease inhibitor (aminoethylbenzenesulfonyl fluoride), which was also present during incubation with serum. Other strips were directly developed with antibodies.
row,Molecule,C4 deposition at the position of the band
1,"MASP-1: MBP-associated serine protease, similar in structure to Clr and Cls (protein) HTVELNNMFGQIQSPGYPDSYPSDSEVTWNITVPDGFRIKLYFMHFNLESSYLCEYDYVKVETEDQVLATFCGRETTDTEQTPGQEVVLSPGSFMSITFRSDFSNEERFTGFDAHYMAVDVDECKEREDEELSCDHYCHNYIGGYYCSCRFGYILHTDNRTCRVECSDNLFTQRTGVITSPDFPNPYPKSSECLYTIELEEGFMVNLQFEDIFDIEDHPEVPCPYDYIKIKVGPKVLGPFCGEKAPEPISTQSHSVLILFHSDNSGENRGWRLSYRAAGNEPELQPPVHGKIEPSQAKYFFKDQVLVSCDTGYKVLKDNVEMDTFQIECLKDGTWSNKIPTCKIVDCRAPGELEHGLITFSTRNNLTTYKSEIKYSCQEPYYKMLNNNTGIYTCSAQGVWMNKVLGRSLPTCLPVCGLPKFSRKLMARIFNGRPAQKGTTPWIAMLSHLNGQPFCGGSLLGSSWIVTAAHCLHQSLDPKDPTLRDSDLLSPSDFKIILGKHWRLRSDENEQHLGVKHTTLHPKYDPNTFENDVALVELLESPVLNAFVMPICLPEGPQQEGAMVIVSGWGKQFLQRFPETLMEIEIPIVDHSTCQKAYAPLKKKVTRDMICAGEKEGGKDACSGDSGGPMVTLNRERGQWYLVGTVSWGDDCGKKDRYGVYSYIHHNKDWIQRVTGVRN",no C4 deposition was observed
2,"MASP-2: mannan-binding lectin associated serine protease-2, polypeptide of SEQ ID NO:2 (protein, listed as Homo sapiens) MRLLTLLGLLCGSVATPLGPKWPEPVFGRLASPGFPGEYANDQERRWTLTAPPGYRLRLYFTHFDLELSHLCEYDFVKLSSGAKVLATLCGQESTDTERAPGKDTFYSLGSSLDITFRSDYSNEKPFTGFEAFYAAEDIDECQVAPGEAPTCDHHCHNHLGGFYCSCRAGYVLHRNKRTCSALCSGQVFTQRSGELSSPEYPRPYPKLSSCTYSISLEEGFSVILDFVESFDVETHPETLCPYEFLKIQTDREEHGPFCGKTLPHRIETKSNTVTITFVTDESGDHTGWKIHYTSTAQPCPYPMAPPNGHVSPVQAKYILKDSFSIFCETGYELLQGHLPLKSFTAVCQKDGSWDRPMPACSIVDCGPPDDLPSGRVEYITGPGVTTYKAVIQYSCEETFYTMKVNDGKYVCEADGFWTSSKGEKSLPVCEPVCGLSARTTGGRIYGGQKAKPGDFPWQVLILGGTTAAGALLYDNWVLTAAHAVYEQKHDASALDIRMGTLKRLSPHYTQAWSEAVFIHEGYTHDAGFDNDIALIKLNNKVVINSNITPICLPRKEAESFMRTDDIGTASGWGLTQRGFLARNLMYVDIPIVDHQKCTAAYEKPPYPRGSVTANMLCAGLESGGKDSCRGDSGGALVFLDSETERWFVGGIVSWGSMNCGEAGQYGVYTKVINYIPWIENIISDF",C4 was deposited
